In US20250283153 (published 2025):

Target: Thrombin (human alpha-thrombin) (Homo sapiens, UniProt P00734;P00734 P00734:328-363,P00734:364-622)
Assay: nanopore without motor protein; lower-current events with increasing thrombin concentration

B1: 29-mer thrombin-binding aptamer (TBA) with 30xT threading strand (ssDNA)
DNA: TTTTTTTTTTTTTTTTTTTTTTTTTTTTTTAGTCCGTGGTAGGGCAGGTTGGGGTGACT
  binding result: binds
